In patent publication US8367368B2, “D-serine dehydratase and use thereof” (National University Corporation Nagoya University, priority 2006, dated 2013):
“Also recorded” adds a separate entry of the source.

Assays:
Type in all cases: biochemical
[1] = molecular target: T1, novel D-serine dehydratase (Saccharomyces cerevisiae, UniProt P53095); assay: Influence of metal ion and EDTA on enzymatic activity, Nessler method
T1 construct: made in house; host or cells: Escherichia coli BL21 (DE3)
T1 sequence (P53095 1-428): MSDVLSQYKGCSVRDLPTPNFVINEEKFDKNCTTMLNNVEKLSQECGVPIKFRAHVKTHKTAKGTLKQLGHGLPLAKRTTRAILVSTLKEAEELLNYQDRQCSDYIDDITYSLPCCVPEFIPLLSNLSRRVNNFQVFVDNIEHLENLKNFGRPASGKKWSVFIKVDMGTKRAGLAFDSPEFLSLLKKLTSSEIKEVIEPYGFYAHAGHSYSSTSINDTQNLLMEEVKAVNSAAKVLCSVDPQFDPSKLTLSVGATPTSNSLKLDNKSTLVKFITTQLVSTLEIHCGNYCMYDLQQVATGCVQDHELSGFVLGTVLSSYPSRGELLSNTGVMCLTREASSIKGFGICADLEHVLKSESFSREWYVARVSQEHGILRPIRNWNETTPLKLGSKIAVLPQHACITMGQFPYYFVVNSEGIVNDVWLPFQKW
Method: (§1) To a reaction solution (final volume: 200 μl) containing 50 mM of HEPES-NaOH buffer (pH 8.0), […] of pyridoxal-5′-phosphate and 10 mM of D-serine, an appropriate amount of D-serine dehydratase was added and incubated at 30° C. Thereafter, trichloroacetic acid (final concentration: 5%) was added to stop the reaction. Ammonia in the centrifuged supernatant was quantified by using a Nessler reagent.
The influence and effect of metal ion on the activity of the novel enzyme were examined by the following method. The compounds shown in FIG. 5 were incubated with untreated novel enzyme and 2 mM EDTA, and then dialyzed with Tris buffer solution. The D-serine dehydratase activity of the novel enzyme was measured by a Nessler method in the presence of 0.05 mM or 0.5 mM of any of KCl, NaCl, MnCl2, MgCl2, CaCl2, NiSO4, CuSO4 and ZnCl2.

[2] = Dynamic characteristic (reciprocal plot of rate against D-serine concentration), Nessler method; settings: substrate D-serine
Method: as §1
The dynamic characteristic of the novel enzyme was examined by the following method. In the Nessler method, the concentration of D-serine was changed and the D-serine dehydratase activity of the novel enzyme in the respective concentrations of D-serine was measured. The inverse number of the obtained rate was plotted to the inverse number of the D-serine concentration. Then, the maximum rate was calculated from the inverse number of the y section and Km value was calculated from the inverse number of the x section.

[3] = Effect of pH on enzymatic activity, Nessler method; settings: MOPS, MES, HEPES, Tris buffers
Method: as §1
The relationship between the activity of the novel enzyme and pH at the reaction was examined by the following method. In the Nessler method, buffer solution was changed to MOPS (pH 6.5-8.0), MES (pH 6.0-6.5), HEPES (pH 7.0-8.5), and Tris (pH 7.5-9.0), respectively. By using the reaction solution, the D-serine dehydratase activity of the novel enzyme was measured.

[4] = D-serine dehydratase activity of the purified enzyme, Nessler method; settings: 10 mM D-serine, HEPES-NaOH pH 8.0, 30° C.
Method: as §1, with “The activity of serine dehydratase was measured as follows: ammonia as a reaction product was measured by a Nessler method or pyruvic acid as a reaction product was measured by coupling with lactate dehydrogenase and by oxidation of NADH. Hereinafter, outline of each method is shown. To” for “To”

[5] = Substrate-specificity by the Nessler method, L-serine as substrate; settings: same conditions as D-serine
Method: (§2) To a reaction solution (final volume: 200 μl) containing 50 mM of HEPES-NaOH buffer (pH 8.0), […] of pyridoxal-5′-phosphate and 10 mM of D-serine, an appropriate amount of D-serine dehydratase was added and incubated at 30° C. Thereafter, trichloroacetic acid (final concentration: 5%) was added to stop the reaction. Ammonia in the centrifuged supernatant was quantified by using a Nessler reagent. The substrate-specificity of the novel enzyme was examined by the following method. That is to say, as the substrate, L-serine and D-threonine in addition to D-serine were prepared, and the reactivity of the enzyme with respect to each substrate was examined by the Nessler method. Note here that the reactivity of the enzyme with respect to L-serine or D-threonine was examined by the Nessler method in the same conditions as in the case of D-Serine except that L-serine (Wako Pure Chemical Industries, Ltd.) or D-threonine (Wako Pure Chemical Industries, Ltd.) was used as a substrate.

[6] = Substrate-specificity by the Nessler method, D-threonine as substrate; settings: same conditions as D-serine
Method: as §2

With `O=C(O)CN(CCN(CC(=O)O)CC(=O)O)CC(=O)O` [EDTA] the “effect of EDTA on enzymatic activity” value ([1]; incubated with 2 mM EDTA, then dialyzed with Tris buffer) was “mostly deactivated; also recorded: inhibited”.

For `[Cl-].[Cl-].[Zn+2]` [zinc, ZnCl2], the “effect of zinc on enzymatic activity” value ([1]; addition of zinc to EDTA-treated enzyme, low concentration) was “activated” and the “zinc concentration at which the enzymatic activity was increased most” value ([1]; same experiment while changing the zinc concentration) was 0.005 mM.

B1: novel D-serine dehydratase: protein of Saccharomyces cerevisiae, YGL196W (SEQ ID NO: 1), with D-serine dehydratase activity; recombinant, His-tagged, expressed in Escherichia coli (protein, listed as Saccharomyces cerevisiae)
chain: T1 sequence (P53095 1-428)
modifications: His tag
notes: recombinant, His-tagged, expressed in Escherichia coli
Work on B1 yielded a maximum rate ([2]; Example text) of 4.2 µmol/min/mg, a Vmax value ([2]; FIG. 7 legend) of 4.2 µmol/min/mg and a Km ([2]; read-out: Km value with respect to D-serine) of 460 µM. The “optimum pH” value [3] was “around 8”, the specific activity [4] was 3.7 gmol/min/mg and the “reactivity with respect to L-serine” value [5] was “does not react with L-serine at all”. The “reactivity with respect to L-serine” value ([5]; listed as novel enzyme) was “no reactivity”, the “reactivity to D-threonine when the reactivity to D-serine was 100%” value [6] was 5% and the “reactivity with respect to D-threonine” value [6] was “extremely low”. The “reactivity with respect to D-threonine” value ([6]; listed as novel enzyme) was “low reaction”.
